Our source for the koff, Ka and Kd values is publication PMC8698692, “Generation of a Novel High-Affinity Antibody Binding to PCSK9 Catalytic Domain with Slow Dissociation Rate by CDR-Grafting, Alanine Scanning and Saturated Site-Directed Mutagenesis for Favorably Treating Hypercholesterolemia” (Biomedicines, 2021).

Substitutions are numbered along the chain they refer to.

For experiment [1], the target named is T1, human proprotein convertase subtilisin/kexin type 9 (hPCSK9), recombinant (Homo sapiens, UniProt Q8NBP7, biotinylated with a biotinylation kit for the BLI assay only (sites not given)).
T1 construct: signal peptide in the construct; source: CHO-3E7, transiently transfected (pTT5-hPCSK9), supernatant purified (Ni-IMAC, Superdex 200 SEC)
The experiment in a line: BLI; ForteBio Octet QKe; biotinylated hPCSK9 (50 μg/mL) immobilised on streptavidin biosensors; 2-fold dilutions of antibody (scFvs 6000-93.75 nM, mAbs 800-12.5 nM), association 300 s or longer, dissociation 600 s in SD buffer (PBS, 0.02% Tween 20, 0.1% BSA, pH 7.4); global fit. Particulars: both partners purified. (In general: BLI is a label-free optical method that tracks binding on a fibre tip over time.)

Experiment [2] has as its target T1, human proprotein convertase …. The experiment is described as follows: ELISA; non-competitive ELISA; hPCSK9 coated at 1 μg/mL and 2 μg/mL; purified m5E12 at 10^-1 to 10^5 ng/mL; HRP goat anti-mouse IgG; Kaff = (n − 1)/2(n[Ab']t − [Ab]t). Particulars: both partners purified. On the technique in general: In an ELISA, binding on a coated surface is turned into a signal by an enzyme label.

T1 sequence (Q8NBP7 31-692): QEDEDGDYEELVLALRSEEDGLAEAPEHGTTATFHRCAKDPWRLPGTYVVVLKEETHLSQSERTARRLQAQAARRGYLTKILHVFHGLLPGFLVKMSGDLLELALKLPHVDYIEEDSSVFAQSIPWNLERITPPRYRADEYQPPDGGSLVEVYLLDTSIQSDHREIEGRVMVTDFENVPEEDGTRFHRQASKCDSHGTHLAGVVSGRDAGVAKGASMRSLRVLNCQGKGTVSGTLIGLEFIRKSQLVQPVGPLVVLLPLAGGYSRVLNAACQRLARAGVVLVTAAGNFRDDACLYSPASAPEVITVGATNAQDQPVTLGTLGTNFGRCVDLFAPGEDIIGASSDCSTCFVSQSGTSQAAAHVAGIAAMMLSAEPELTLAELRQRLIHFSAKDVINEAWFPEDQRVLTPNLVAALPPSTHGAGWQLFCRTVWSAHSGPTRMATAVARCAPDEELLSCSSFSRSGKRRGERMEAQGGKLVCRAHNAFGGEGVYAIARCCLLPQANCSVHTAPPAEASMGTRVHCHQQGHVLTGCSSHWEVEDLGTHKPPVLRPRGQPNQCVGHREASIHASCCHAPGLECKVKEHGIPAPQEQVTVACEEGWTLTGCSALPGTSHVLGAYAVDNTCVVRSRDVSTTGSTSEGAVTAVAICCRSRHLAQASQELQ

B1: m5E12scFv, murine 5E12 single-chain variable fragment (scFv, V domains shown)
VH: EVQLEQSGAELVKPGASVKLSCKASGYTFTSYWMHWVKQRPGQGLEWIGEINPSNGRTDHSEKFKNKATLTVDKSSTTAYLQLSSLTSEDSSVYYCARFHYDYDYFDYWGQGTTLTVSS
VL: DIVITQSTKFMSTSVGDRVSVTCKASRNVGNSVGWYQQKPGQSPKILIYSASYRYSGVHDRFTGSGSGTDFTLTISNVQSEDLAEYFCQQYNRYPLTFGEGTKLELK
notes: VH of m5E12; (Gly4Ser)3 linker between VH and VL; VL of m5E12; Cloned in pET-27b with the pelB signal peptide; isolated from the periplasm; also called murine 5E12 scFv; source: E. coli BL21 (DE3), periplasm, purified (Ni-NTA, Superdex 75 SEC)
One may read the koff as the rate constant with which the complex falls apart. In the case of B1, the off-rate constant (koff) in experiment [1] stood at 0.00744 s⁻¹.

B2: m5E12, murine monoclonal antibody against hPCSK9 (IgG1, kappa) (antibody, V domains shown)
VH: B1 VH
VL: B1 VL
notes: VH of m5E12; mouse IgG1 heavy-chain constant region (isotype found with a kit; BALB/c mice); VL of m5E12; mouse kappa light-chain constant region (isotype found with a kit); Mouse IgG1 kappa; also called mAb 5E12; source: hybridoma 5E12 supernatant (screening ELISA); mouse ascites, purified (protein A)
Regarding B2, in experiment [2], the Ka turned out to be 1.04e+09 M⁻¹.

B3: h5E12scFv, humanized 5E12 scFv by CDR grafting without back mutation (scFv, V domains shown)
VH: QVQLVQSGAEVKKPGASVKVSCKASGYTFTSYWMHWVRQAPGQGLEWMGEINPSNGRTDHSEKFKNRVTMTRDTSTSTVYMELSSLRSEDTAVYYCARFHYDYDYFDYWGQGTLVTVSS
VL: DIVMTQSPSSLSASVGDRVTITCKASRNVGNSVGWYQQKPGKAPKLLIYSASYRYSGVPSRFSGSGSGTDFTLTISSLQPEDFATYYCQQYNRYPLTFGQGTKVEIK
notes: VH of h5E12scFv: CDRs of m5E12 grafted onto the human heavy chain GenBank AMK70123.1; (Gly4Ser)3 linker; the format VH-(Gly4Ser)3-VL is told for m5E12scFv, of which this is the humanized form; VL of h5E12scFv: CDRs of m5E12 grafted onto the human light chain GenBank APZ85158.1; Cloned in pET-27b with the pelB signal peptide; isolated from the periplasm; source: E. coli BL21 (DE3), periplasm, …
As a reminder, the Kd is the equilibrium constant for the complex coming apart. Take B3: in experiment [1], the dissociation constant (Kd) came out at 171 nM and the off-rate (koff) was 0.00108 s⁻¹.

B4: h5E12scFv-bm, humanized 5E12 scFv by CDR grafting with back mutation (scFv, V domains shown)
VH: B3 VH with Q1E, R38K, M48I, R67K, V68A, R72V, V79A, M81L, A92S
VL: B3 VL with M4I, P8T, L46I, P59H, T85E, Y87F, Q100E
notes: (Gly4Ser)3 linker; the format VH-(Gly4Ser)3-VL is told for m5E12scFv, of which this is a humanized form; Cloned in pET-27b with the pelB signal peptide; isolated from the periplasm; source: E. coli BL21 (DE3), periplasm, purified (Ni-NTA, Superdex 75 SEC)
On to B4, for which the koff in experiment [1] was 0.01 s⁻¹.
